Data as given in PMC9743467 (Matter, 2022).

Molecular target: Recombinant human ACE2 protein (carrier free) (human, UniProt Q9BYF1)
Test: zeta potential

Sequence of Recombinant human ACE2 protein (carrier free) (Q9BYF1 18-740): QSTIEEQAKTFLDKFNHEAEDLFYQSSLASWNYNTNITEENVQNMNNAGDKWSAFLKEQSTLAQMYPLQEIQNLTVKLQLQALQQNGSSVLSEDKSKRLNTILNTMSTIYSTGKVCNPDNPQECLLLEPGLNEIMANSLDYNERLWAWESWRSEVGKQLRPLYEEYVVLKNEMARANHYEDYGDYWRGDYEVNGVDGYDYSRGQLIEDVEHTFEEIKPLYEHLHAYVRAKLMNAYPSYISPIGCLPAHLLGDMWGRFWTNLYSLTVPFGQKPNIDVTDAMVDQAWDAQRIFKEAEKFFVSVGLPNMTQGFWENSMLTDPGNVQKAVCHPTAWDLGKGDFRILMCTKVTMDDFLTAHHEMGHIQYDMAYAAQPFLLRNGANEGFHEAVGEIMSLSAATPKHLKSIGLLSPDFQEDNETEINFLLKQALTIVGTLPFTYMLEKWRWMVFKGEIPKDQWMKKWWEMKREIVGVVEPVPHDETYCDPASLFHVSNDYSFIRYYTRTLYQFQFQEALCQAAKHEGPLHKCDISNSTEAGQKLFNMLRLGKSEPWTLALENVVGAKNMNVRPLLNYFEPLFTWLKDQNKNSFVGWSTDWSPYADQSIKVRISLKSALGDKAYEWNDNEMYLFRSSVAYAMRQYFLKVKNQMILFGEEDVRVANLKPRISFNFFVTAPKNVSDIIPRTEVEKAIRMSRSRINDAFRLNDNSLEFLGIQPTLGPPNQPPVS

B1: ACE2-binding Ligand peptide amphiphile (C12-VVVGKK-OEG4-GG-DX600) (peptide)
peptide: VVVGKKGGGDYSHCSPLRYYPWWKCTYPDPEGGG
binding result: binds
